Measurements taken from patent US20040253689A1 (published 2004).
Where a chain is given by its changes, count along the chain named. Names and notes keep the numbering of the source.

B1: 4m-hIGFBP-3 (R75A, L77A, L80A, L81A mutant CHO-hIGFBP-3) (other, human)
chain: HHHHHHGMASMTGGQQMGRDLYDDDDKGASSAGLGPVVRCEPCDARALAQCAPPPAVCAELVREPGCGCCLTCALSEGQPCGIYTERCGSGLRCQPSPDEAAPAQAAADGRGLCVNASAVSRLRAYLLPAPPAPGNASESEEDRSAGSVESPSVSSTHRVSDPKFHPLHSKIIIIKKGHAKDSQRYKVDYESQSTDTQNFSSESKRETEYGPCRREMEDTLNHLKFLNVLSPRGVHIPNCDKKGFYKKKQCRPSKGRKRGFCWCVDKYGQPLPGYTTKGKEDVHCYSMQSK
notes: mature; Same tagged construct as the wild-type CHO-hIGFBP-3, with four alanine substitutions; also called quadruple mutant
B2: 6m-hIGFBP-3 (I56A, Y57A, R75A, L77A, L80A, L81A mutant CHO-hIGFBP-3) (other, human)
chain: B1 chain with I83A, Y84A
notes: mature; Same tagged construct as the wild-type CHO-hIGFBP-3, with six alanine substitutions; Positions count on mature hIGFBP-3, not on the precursor; also called 6m-CHO-hIGFBP-3

How the values were obtained:
^125I-IGF-II = target: T1, ^125I-IGF-II (human, UniProt P01344 25-91, radioiodinated (^125I, 2000 Ci/mmol); labelled residue not stated); test: solution binding of ^125I-IGF-II, charcoal separation; reference wild-type CHO-hIGFBP-3
T1 construct: also called insulin growth factor-II
Procedure: (§1) Binding of ¹²⁵I-IGF-I and ¹²⁵I-IGF-II in solution —¹²⁵I-IGF-I or ¹²⁵I-IGF-II (˜25,000 cpm) was incubated overnight at 4° C. with different concentrations of recombinant hIGFBP-3 standard (R&D Systems), or purified wild-type or mutant CHO-hIGFBP-3 in 0.4 ml phosphate-buffered saline supplemented with 0.2% fatty acid-free bovine serum albumin. Following the addition of 0.5 ml of a 5% suspension of activated charcoal (Sigma) to adsorb unbound IGF tracer, the samples were centrifuged. Radioactivity bound to hIGFBP-3 remained in the charcoal supernate and was quantified in a gamma counter (Yang et al. (1993), supra). DNA synthesis—DNA synthesis was measured in CCL64 cells by the incorporation of the thymidine analog BrdU into newly synthesized as previously described (Wu et al. (2000), supra). Quiescent cells in serum-free medium were stimulated to synthesize DNA by adding EGF. EGF was used to stimulate proliferation instead of serum to avoid introducing IGFs. In brief, the cells were plated in 96-well microtiter plates (30,000 cells/well) in 0.2 ml of DMEM containing 10% fetal calf serum, and incubated for 3 h at 37° C. […] BrdU (10 μM) was added for 2-3 h, the cells were fixed, and BrdU incorporation was quantified by an immunocolorimetric assay using monoclonal antibody to BrdU conjugated to peroxidase. […] The absorbance at 450 nm was measured in a scanning multiwell spectrophotometer.

^125I-IGF-I = target: T2, ^125I-IGF-I (human, UniProt P05019 49-118, radioiodinated (^125I, 2000 Ci/mmol); labelled residue not stated); test: solution binding of ^125I-IGF-I, charcoal separation; reference wild-type CHO-hIGFBP-3
T2 construct: also called insulin growth factor-I
Procedure: as §1

T1 sequence (P01344 25-91 limits assumed): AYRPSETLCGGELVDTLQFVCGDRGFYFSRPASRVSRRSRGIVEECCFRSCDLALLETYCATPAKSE
T2 sequence (P05019 49-118 limits assumed): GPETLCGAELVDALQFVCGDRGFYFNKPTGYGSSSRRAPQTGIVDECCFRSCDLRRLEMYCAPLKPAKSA

Binder | fold lower concentration of wild-type CHO-hIGFBP-3 that still bound more than the mutant at 200 ng/ml (^125I-IGF-II) [fold] | fold lower concentration of wild-type CHO-hIGFBP-3 that still bound more than the mutant at 200 ng/ml (^125I-IGF-I) [fold]
B1 | > 80 | > 80
B2 | > 80 | 80
